Results taken from the nanobody polyreactivity screen of Harvey et al. (2022).

Assay: yeast display, Sf9 membrane polyspecificity reagent, FACS + sequencing; frameworks hold sequencing errors
Outline: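 Sorting gates, low and high (top ~1%), were placed on anti-HA fluorescence to track expression and on streptavidin fluorescence to track reagent binding. A clone's polyreactivity label is taken from the gate it came out of. The reagent was 10% biotinylated, detergent-solubilized Sf9 membrane, applied for 1 hour at 4 °C to galactose-induced yeast display cells.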

QVQLVESGGGLVQAGGSLRLSCAASGMIFKYYVMGWYRKAPGKERELVDDIRCSGGITSYADSVKGRFTISRDNAKNTVYLQMNSLKPEDTAVYYCAVAHSRLRTAYTFSVQRYDYWGQGTQVTVSS
polyreactivity (PSR sort gate): low polyreactivity

QVQLVESGGGLVQAGGSLRLSCAASGRIFKFYAMGWYRQAPGKERELVAGITTSGGSTYYADSVKGRFTISRDNAKNTVYLQMNSLKPEDTAVYYCAASRHFARHRGYYFRYDYWGQGTQVTVSS
polyreactivity (PSR sort gate): high polyreactivity

QVQLVESGGGLVQAGGSLRLSCAASGSTFSQYVMGWYRQAPGKERELVAAISSGGSTYYADSVKGRFTISRDNAKNTVYLQMNSLKPEDTAVYYCAAKYDGSYVGLYWYSMNYWGQGTQVTVSS
polyreactivity (PSR sort gate): low polyreactivity

QVQLVESGGGLVQAGGSLRLSCAASGRTFIVNTMRWYRQAPGKDRELVAAITARGGRTYYADSEKGRFTISRDNAKNTVYLQLNSLKPEDTAVYYCNARTPPREAERYYWGQGTQVTVSS
polyreactivity (PSR sort gate): low polyreactivity

QVQLVETGGGLVHAGGSLRLSSAASGRTFVENDMGWYRQAPGKERELVAAITYRGGRTFYADSVKGSFTISRDNAKNTVYLQMNSRKPEDTAVYSCNAVRRTGGHGVYWGQGTQVTVSS
polyreactivity (PSR sort gate): high polyreactivity

QVQLVESGGGLVQAGGSLRLSCAASGRIFGQYAMGWYRQAPGKERELVAAITYSTGSTSYADSVKGRFTISRDNAKNTVYLQMNSLKPEDTAVYYCATRKPSVRGVIPTRNSYYYWGQGTQVTVSS
polyreactivity (PSR sort gate): high polyreactivity

QVQLVESGGGLVQAGGSLRLSCAASGSTFISNAMGWYRQAPGKERELVASITWTDVSTYYADSVKGRFTISRDNAKNTVYLQMNSLKPEDTAVYYCAAVTGLSSNDGYDYWGQGTQVTVSS
polyreactivity (PSR sort gate): low polyreactivity

QVQLVESGGGLDQAGGSLRLSCAASGFTFPRYAMGWYRQAPGKERELVAAITLIGGSTYYADSVKGRFTISRDNAKNTVYLQMNSLKPEDTAVYYCAATDRKVGVYHSYYYWGQGTQVTVSS
polyreactivity (PSR sort gate): low polyreactivity

QVHLVESGGGLVQAGGSLRLSFAAYGSIFIQYVMGWYRQAPGKERELVAAISRRGGSTYYADSVKGRFTISRDNAKNTVYLHMNSLKPEDTAVYYCAAGSAYSIGYYWGQGTQVTVSS
polyreactivity (PSR sort gate): high polyreactivity

QVQLVDSGGGLVQAGGSLRLSCPASGRIFSWYAMGWYRQAPGKERELVATISSTGGSTYYADSVKGRFTISRDNAKNTVYLQMNSLKAEHTAVYYCNAVVYGIFLYAWYDYWGQGTQVTVSS
polyreactivity (PSR sort gate): low polyreactivity

QVQLVESGGGLVQAGGSLRLSCAASGIIFVYYAMGWYRQAPGKERELVAAISYSGGRTYYADSVKGRFTISRDNAKNTVYLQMNSLKPEDTAVYYCAAVDRRGYRYALDYWGQGTQVTVSS
polyreactivity (PSR sort gate): high polyreactivity

QVQLVESGGGLVQAGGSLRLSCAASGFIFRRYAMGWYRPAPGKVWELVAAITLRGGSTYYADSVKGRFTISRDNAKNTVYLQMNSLKPEATAVYYCAAGVRGQHDGYYWGQGTQETVSS
polyreactivity (PSR sort gate): high polyreactivity

QVQLVESGGGLVQAGGSLRLSCAASGSTFSDYAMGWYRQAPGKERELVAGITGGGGTYYADSVKGRFTISRDNAKNTVYLQMNSLKPEDTAVYYCAAGRRHGFGYWGQGTQVTVSS
polyreactivity (PSR sort gate): low polyreactivity

QVQLVESGGGLVQAGGSLRLSCAASGSTSYFNVKGWYRQAPGKERELVAAISWSGGSTYADSVKGRFTISRDNAKNTVYLQMNSLKREDTAVYYCNKDYGYVQLRFYGPGYYWGQGTQVTVSS
polyreactivity (PSR sort gate): low polyreactivity

QVQLVESGGGLVQAGGSLRLSFAASGSTFRYNTRGWYRQAPGKEREVVATITWDTDSTYYADSVKGRFTISRDNAKNTVYLQMNSLKPEDTAVYYCAAETTWADKSYHYLQEYNYCGQGTQVTVSS
polyreactivity (PSR sort gate): low polyreactivity

QVQLVESGGGLVQAGGSLRLSCAASGSIFFWNAMGWYRQAPGKERELVAAISWSAGITYYADSVKGRFTISRDNAKNTVYVQMNSLKPEDTAVYYCARDQGWYTVYYDSYDYWGQGTLVTVSS
polyreactivity (PSR sort gate): low polyreactivity

QVQLVESGGGLVQAGGSLRLSCAASGRIFPYYTMGWYRQAPGKERELVATITTGGSTNYADSVKGRFTISRDNAENTVYLQMNSLKPEDTAVYYCNNDGVVVGRFTGPQEYDYWGQGTQVTVSS
polyreactivity (PSR sort gate): low polyreactivity

QVQLVESGGGLGQAGGSLRLICAASGSTFRHYAMGWYRPAPRKERELVAVISWGGTSTYYADSVKGRFTISRDNAKNTVYLQMNSLKPEDTAVYYCNKAYFPIFKGYEMYYWGQGTQVTVSS
polyreactivity (PSR sort gate): low polyreactivity

QVQLVEAGGGLVQAGGSLRLSCAASGRIFGRYVMGWYRQAPGKERELVASISTRRGRTYYADSVKGRFTSSRDNAKNTVYLQMNSLKPEDTAVYYCATAYSSHYGIHRRYEYWGQGTQVTVSS
polyreactivity (PSR sort gate): high polyreactivity

QVQLVESGGGLVQAGGSLRLSCAASGSIFVIYAMGWYRQAPGKERELVAAISRSGGRTYYADSVKGRFTISRDNAKTTVYLQMNSLKPEDTAVYYCAAEGSTYQGAPGVYYWGQGTQVTVSS
polyreactivity (PSR sort gate): high polyreactivity

QVQRLESGGGLVQAGGSLRLSCAASGGTIDWNAMGWYRQAPGKETEFVAAITSSGGSTYYADSVKGRFTISRDNAKNSVYLQMTSLKPEDTAVYECAADFWYYQYPYGGGGYWGQGTQVTVSS
polyreactivity (PSR sort gate): low polyreactivity

QDQLLESGGGLVQAGGSLRLSCAASGSILQDYAMGWYRQAPGKERELVAAISNSGDSTYYADSLKGRFTISRENAKTTVYLQLNSLKPEDTAVYYCNAAVYPYAMYSGGLDYDYWGHGTQVTVSS
polyreactivity (PSR sort gate): low polyreactivity

QVQLVESGGGLVQAGGSLRLRCAASGITTRTYAMGWYRQAPGKERELVAAISDSGDRTYYADSVKGRFTISRDKAKNTVYFQMNSVKPEDTAVYYCAVDGPGPRCEFWGQGTKVTVSS
polyreactivity (PSR sort gate): low polyreactivity

QVQLVESGGGLVQAGGSLRLSCAASGFTFWQYTMGWYRQAPGKERDFVASITSGVSTYYADSVKGSFTISRENAKNTVYLQMNSVKPEDTAVYYCAAYYYRRYLRGFFENWGQGTQVTVSS
polyreactivity (PSR sort gate): high polyreactivity

QVQLQESGRGLVQAGGSLRLSCAASGSISILQSMGWYRQAPGKERELVAGINWGATTYYADSVKGRLTTSRDYAKNTVYLQMNSLKPEDTAVYYCAVPTYYTYPLLYWGQGTQVTVSS
polyreactivity (PSR sort gate): low polyreactivity

QVQIVESGGGLFQAGGSLRISCAASGRPFAPNAMGWYRQAPAKERELVAAITGRGGRTYYADSVKGRFTISRDNANNTVYLQMNSEKPADTAVYYCAYFIAPWGLDFWGQGTEVTVSS
polyreactivity (PSR sort gate): high polyreactivity

QVQLVESGGGLVQAGGSLRLSRAASGATFYFNAMGWYSQAHGKERELVAGITYSGDSTYYADSVKGRFTLSRDNAKNPVYLQMNSLKPEDTAVYYCAADVDYDLDGDYWGQGTQVTVSS
polyreactivity (PSR sort gate): low polyreactivity

QVQLVESGGGLVQAGGSLRLSCAASGSIFDFSAMGWYRQAPGKERELVAAISGSGGSTYYADSVKGRFTISRDNAKNTVYLQMNSLKPEDTAVYYCSYYYWGQGTQVTVSS
polyreactivity (PSR sort gate): low polyreactivity

QVQLVESGGGLVQAGGSLRLSCAASGSTFDNYVMGWYRQAPGKERELVAAISRRGGNTYYADSVKGRFTISRDNAKNTVYLQMNSLKPEDTAVYYCAADPYGYGHWGDYWGQGTQVTVSS
polyreactivity (PSR sort gate): low polyreactivity

QVQLVESGGGLVQAGGILRLSCAASGFIFTYYAKGWYRQAPGKEMELVAAISWSGGSTYYADSVKGRFTISRDNAKNTVYLLMNSLKPEDTAVYYCAVDLHYSRGPRDAQYRYYYWGHGTQVTVSS
polyreactivity (PSR sort gate): high polyreactivity

QVQLVESGGALVQAGGSLRLSCAASGSIFTGYAMGWYRQAPGKERELVAAISSRGGSTYYADSVKGRFTISRDNATNTVYLQMNSLKPEDTAVYYCNAVYSGRFLRRDYWGQGTQVTVSS
polyreactivity (PSR sort gate): high polyreactivity
